Test results from patent US20260069728A1, “MULTI-TARGETING COMPOUND AND USE THEREOF” (Chengdu Shetai Medical Technology Co., Ltd., priority 2023, published 2026).
Read-outs that look alike come from different tables or passages of the source.

How the values were obtained:
[1] = Stability of radioligands in PBS buffer (radio-HPLC); format: physicochemical
Procedure: The purpose of this experiment was to test the stability of the radioligands under buffer conditions simulating the physiological environment. This stability is a prerequisite for further animal experiments.
(§1) 1. ^68Ga-SDYD01: ^68Ga-SDYD01 was added to PBS buffer (pH=7.4) and incubated at 37° C. The mixture samples were taken for radio-HPLC analysis after 0.5 hours, 1 hour, and 2 hours of incubation. The stability of ^68Ga-SDYD01 in PBS buffer: the radiochemical purities of ^68Ga-SDYD01 after incubation in PBS for 0.5 hours, 1 hour, and 2 hours were 98%, 97%, and 97%, respectively (FIG. 4).
(§2) 2. ^177Lu-SDYD01: ^177Lu-SDYD01 was added to PBS buffer (pH=7.4) and incubated at 37° C. The mixture samples were taken for radio-HPLC analysis after 24 hours, 48 hours, and 120 hours of incubation. The stability of ^177Lu-SDYD01 in PBS buffer: the radiochemical purities of ^177Lu-SDYD01 after incubation in PBS for 24 hours, 48 hours, and 120 hours were 97%, 96%, and 94%, respectively (FIG. 5).
as §1, with “^68Ga-SDYD02: ^68Ga-SDYD02” for “^68Ga-SDYD01: ^68Ga-SDYD01”, “^68Ga-SDYD02” for “^68Ga-SDYD01”, “96%, 95%” for “98%, 97%,”, “93%,” for “97%,”, “10).” for “4).”
as §2, with “^177Lu-SDYD02: ^177Lu-SDYD02” for “^177Lu-SDYD01: ^177Lu-SDYD01”, “^177Lu-SDYD02” for “^177Lu-SDYD01”, “95%, 91%” for “97%, 96%,”, “87%,” for “94%,”, “11).” for “5).”
as §1, with “1. ^68Ga-SDYD05: ^68Ga-SDYD05” for “1. ^68Ga-SDYD01: ^68Ga-SDYD01”, “of ^68Ga-SDYD05” for “of ^68Ga-SDYD01”, “98%, 96%” for “98%, 97%,”, “and 95%,” for “and 97%,”, “(FIG. 16).” for “(FIG. 4).”
as §2, with “^177Lu-SDYD05: ^177Lu-SDYD05” for “^177Lu-SDYD01: ^177Lu-SDYD01”, “^177Lu-SDYD05” for “^177Lu-SDYD01”, “97%, 96% and” for “97%,”, “96%,” for “96%, and 94%,”, “17).” for “5).”
1. ^68Ga-SDYD06: ^68Ga-SDYD06 was added to PBS buffer (pH=7.4) and incubated at 37° C. The mixture samples were taken for radio-HPLC analysis after 0.5, 1, and 2 hours of incubation. The stability of ^68Ga-SDYD06 in PBS buffer: the radiochemical purities of ^68Ga-SDYD06 after incubation in PBS for 0.5 hours, 1 hour, and 2 hours were 96%, 94% and 93%, respectively (FIG. 22).
2. ^177Lu-SDYD06: ^177Lu-SDYD06 was added to PBS buffer (pH=7.4) and incubated at 37° C. The mixture samples were taken for radio-HPLC analysis after 24 hours, 48 hours, and 120 hours of incubation.
1. ^68Ga-SDYD03: ^68Ga-SDYD03 was added to PBS buffer (pH=7.4) and incubated at 37° C. The mixture samples were taken for radio-HPLC analysis after 0.5 hours, 1 hour, and 2 hours of incubation. The stability of ^68Ga-SDYD03 PBS in PBS buffer: the radiochemical purities of ^68Ga-SDYD03 after incubation in PBS for 0.5 hours, 1 hour, and 2 hours were 96%, 96% and 95%, respectively (FIG. 27).
as §2, with “^177Lu-SDYD03: ^177Lu-SDYD03” for “^177Lu-SDYD01: ^177Lu-SDYD01”, “^177Lu-SDYD03” for “^177Lu-SDYD01”, “are 99%, 96%” for “were 97%, 96%,”, “28). […]” for “5).”

[2] = Small animal PET imaging and biodistribution study; format: in vivo, NSG mice; details: mouse, in vivo, iv, 7.4 MBq, absolute uptake value in the tumor
Procedure: (§3) Eleven NSG mice bearing subcutaneous xenograft tumors (U87 MG cells), with tumor sizes approximately 150 mm^3, were used. The mice were intravenously injected via the tail vein with approximately 7.4 MBq of ^68Ga-labeled SDYD01, SDYD02, SDYD03. SDYD04, SDYD05, SDYD06, SDYD07, SDYD08 or SDYD07-1 compounds, or with ^[…]-labeled FAPI-04 or FAP2286 compounds as tracers. Micro PET/CT imaging was performed at 30 min, 60 min, and 120 min post-injection. Static images were acquired in 3D mode for 20 minutes. Reconstruction was performed using the OSEM3D/MAP method to obtain attenuation-corrected PET/CT fusion images.
(§4) NSG mice bearing subcutaneous xenograft tumors (U87 MG cells) were divided into 3 groups, with 11 mice in each group. They were intravenously injected via the tail vein with ^68Ga-labeled SDYD01, SDYD02, SDYD03. SDYD04, SDYD05, SDYD06. SDYD07, SDYD08, or SDYD07-1 compounds, or with ^68Ga-labeled FAPI-04 or FAP2286 compounds as tracers. Tumor-bearing mice injected with ^68Ga-labeled compounds SDYD01, SDYD02, SDYD03, SDYD04, SDYD05, SDYD06, FAPI-04, as well as 68Ga-labeled compounds FAPI-04 and FAP2286, were euthanized at 30 min. 60 min, and 120 min, respectively, for each group. Tumor-bearing mice injected with ^68Ga-labeled compounds SDYD07, SDYD08, and SDYD07-1 were euthanized at 30 min, 60 min, and 90 min, respectively, for each group. Blood, tumors, and other major organs and tissues were collected, weighed, and measured for radioactivity. After radioactive decay correction, the standardized uptake value (SUV) and percentage injected dose per gram of tissue (% ID/g) were calculated. In these figures, (a) represents the PET/CT imaging results, (b) represents the biodistribution results, and (c) represents the relative ratios of radioactive uptake in tumor versus normal tissues.

[3] = tested on: subcutaneous xenograft tumors (U87 MG cells); experiment: Small animal PET imaging and biodistribution study; format: in vivo, NSG mice; details: mouse, in vivo
Procedure: as §3, §4

Q: For CCCCCC(=O)N[C@@H]1CSCc2cc(CSCCNC(=O)[C@@H](CCCCNC(=O)CN3CCN(CC(=O)O)CCN(CC(=O)O)CCN(CC(=O)O)CC3)NC(=O)COCCOCCNC(=O)COCCOCCNC(=O)CCN3C(=O)CC(SCCNC(=O)CCC(=O)N[C@@H](CCCNC(=N)N)C(=O)N[C@@H](CCCNC(=N)N)C(=O)N[C@@H](Cc4ccc5ccccc5c4)C(=O)N[C@@H]4CSSC[C@@H](C(=O)N[C@@H](CCCNC(=N)N)C(N)=O)NC(=O)[C@H](CCCNC(N)=O)NC(=O)[C@H](CCCNC(=N)N)NC(=O)[C@H](Cc5ccc(O)cc5)NC(=O)[C@@H]5CCCN5C(=O)[C@H](CCCCN)NC(=O)[C@H](CCCCN)NC(=O)[C@H](CCCNC(N)=O)NC(=O)[C@H](Cc5ccc(O)cc5)NC4=O)C3=O)cc(c2)CSC[C@@H](C(=O)O)NC(=O)[C@H](Cc2ccccc2)NC(=O)[C@H](CCC(N)=O)NC(=O)C([C@@H](C)O)NC(=O)[C@@H]2CCCN2C(=O)[C@@H]2CCCN2C1=O (single isomer, unassigned) [^177Lu-SDYD02, metal not drawn], which “stability in PBS buffer (in words)” value [1] is on record?
A: Its value is “quite stable in PBS buffer”.

Q: For CC(C)CC(CC(C)C)NC(=O)[C@H](Cc1cnc[nH]1)NC(=O)CNC(=O)C(NC(=O)[C@H](C)NC(=O)[C@H](Cc1c[nH]c2ccccc12)NC(=O)[C@H](CCC(N)=O)NC(=O)[C@@H](Cc1ccccc1)NC(=O)COCC(=O)Nc1ccc(CNC(=O)COCCOCCNC(=O)COCCOCCNC(=O)[C@H](CCCCNC(=O)CN2CCN(CC(=O)O)CCN(CC(=O)O)CCN(CC(=O)O)CC2)NC(=O)CCC(=O)N2CCN(CCCOc3ccc4nccc(C(=O)NCC(=O)N5CC(F)(F)C[C@H]5C#N)c4c3)CC2)cc1)C(C)C (single isomer, unassigned) [^177Lu-SDYD03, metal not drawn], which “stability in PBS buffer (in words)” value ([1]; PBS buffer pH=7.4, 37° C.) is on record?
A: Its value is “quite stable in PBS buffer”.

Q: For CCCCCC(=O)N[C@@H]1CSCc2cc(CSCCNC(=O)COCCOCCNC(=O)COCCOCCNC(=O)CSC3CC(=O)N(CCC(=O)N[C@H](CCCCNC(=O)CN4CCN(CC(=O)O)CCN(CC(=O)O)CCN(CC(=O)O)CC4)C(=O)NCc4ccc(C(=O)NCCC[C@@H]5C(=O)N[C@@H](CCCNC(=N)N)C(=O)N[C@@H](Cc6ccc7ccccc7c6)C(=O)NCC(=O)N[C@H](Cc6ccc(O)cc6)C(=O)N5C)cc4)C3=O)cc(c2)CSC[C@@H](C(=O)O)NC(=O)[C@H](Cc2ccccc2)NC(=O)[C@H](CCC(N)=O)NC(=O)C([C@@H](C)O)NC(=O)[C@@H]2CCCN2C(=O)[C@@H]2CCCN2C1=O (single isomer, unassigned) [^177Lu-SDYD06, metal not drawn], which “stability in PBS buffer (in words)” value [1] is on record?
A: The value was “quite stable in PBS buffer”.

Q: With CCCCCC(=O)N[C@H]1CSCc2cc(CSCCNC(=O)[C@H](CCCCNC(=O)CCN3C(=O)CC(SCC(=O)NCCOCCOCCOCCOCCC(=O)NCCCC[C@@H]4NC(=O)[C@@H](Cc5ccc(O)cc5)NC(=O)[C@H](CC(=O)O)NC(=O)CNC(=O)[C@H](CCCNC(=N)N)NC4=O)C3=O)NC(=O)CCC(C(=O)O)N3CCN(CC(=O)O)CCN(CC(=O)O)CCN(CC(=O)O)CC3)cc(c2)CSC[C@@H](C(=O)O)NC(=O)[C@H](Cc2ccccc2)NC(=O)[C@H](CCC(N)=O)NC(=O)C([C@@H](C)O)NC(=O)[C@@H]2CCCN2C(=O)[C@@H]2CCCN2C1=O (single isomer, unassigned) [^177Lu-SDYD08, metal not drawn] as the compound, how does the “stability in PBS buffer (in words)” value [1] read?
A: The value was “quite stable in PBS buffer”.

Q: What does the source list for N#C[C@@H]1CC(F)(F)CN1C(=O)CNC(=O)c1ccnc2ccc(OCCCN3CCN(C(=O)CCOCCOCCNC(=O)CCN4C(=O)CC(SC[C@H](NC(=O)CN5CCN(CC(=O)O)CCN(CC(=O)O)CCN(CC(=O)O)CC5)C(=O)NCCCC[C@@H]5NC(=O)[C@@H](Cc6ccc(O)cc6)NC(=O)[C@H](CC(=O)O)NC(=O)CNC(=O)[C@H](CCCNC(=N)N)NC5=O)C4=O)CC3)cc12 (stereo partly drawn) [^68Ga-SDYD07-1, metal not drawn]?
A: tissue uptake at 0.5 h [2]: ~3 %ID/g; tissue uptake at 1 h [2]: ~3 %ID/g; radioactive uptake in non-target organs (in words) [3]: relatively high non-specific uptake in both the kidneys and liver; tumor uptake after 60 minutes (in words) [3]: decreased significantly after 60 minutes

Q: For CN1C(=O)[C@@H](Cc2ccc(O)cc2)NC(=O)CNC(=O)[C@H](Cc2ccc3ccccc3c2)NC(=O)[C@H](CCCNC(=N)N)NC(=O)[C@H]1CCCNC(=O)c1ccc(CNC(=O)[C@H](CCCCNC(=O)CN2CCN(CC(=O)O)CCN(CC(=O)O)CCN(CC(=O)O)CC2)NC(=O)CCC(=O)NCCOCCOCC(=O)NCCOCCOCC(=O)N2CCN(CCCOc3ccc4nccc(C(=O)NCC(=O)N5CC(F)(F)C[C@H]5C#N)c4c3)CC2)cc1 [^177Lu-SDYD05, metal not drawn], which “stability in PBS buffer (in words)” value [1] is on record?
A: Its value is “quite stable in PBS buffer”.
